Experimental data as given in the supplement of paper PMC9170038.

Test system: MS2 coat protein
Test: apparent KD of MS2 coat protein; designed switch direction (-1 OFF switch, 1 ON switch): -1; higher = weaker reporter binding
Summary of the method: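 Designed RNA switches sharing common flanks were transcribed on Illumina chips by stalled E. coli RNA polymerase. They were titrated with SNAP-549-labelled MS2 coat protein, from 0.7 or 1.5 nM doubling to 3 µM, in Tris-HCl pH 7.5 buffer with KCl, MgCl2, BSA, DTT, tRNA and Tween-20. Titrations ran without input, with 200 uM small-molecule ligand, or with an oligonucleotide input. The apparent KD of each design is the median over its clusters, after curve-fitting of normalised cluster fluorescence.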

[1] = Eterna round: R95, input ligand: microRNA oligo, concentration not stated
[2] = input ligand: microRNA oligo, concentration not stated
[3] = Eterna round: R95, input ligand: FMN 200 uM
[4] = Eterna round: R95, input ligand: none

| Sequence | apparent KD of MS2 coat protein [1] | apparent KD of MS2 coat protein (input ligand: FMN 200 uM) | apparent KD of MS2 coat protein (input ligand: none) | other results |
| --- | --- | --- | --- | --- |
| GUCGAGUGAGGAUAUGGUGAGUAGUGCCAGAGCGCUGCUCACCAGAAGGCACAUGAGGAUCACCCAUGUAUGUC [Mat - Exclusion 4 - Mod of JL - D10] (puzzle: Exclusion 4) | 12.3 nM |  |  |  |
| GUCGUGCAGCUUUGCUGUACGAGUACAUGAGGAUCACCCAUGUAGGAUAUGGUACGCUUUGCGUGCCAGAAGGACGUGCGUUAG [salish99_ExNG3_r04_001] (Eterna round: R96, puzzle: Exclusion NG 3) |  | 53.3 nM | 39.3 nM | apparent KD of MS2 coat protein [2]: 35.2 nM |
| GUCGUGUUAGGAUAUAACAACUACUAAUAAAUUAGUAGUUGUUAGAAGGAACAUGAGGAUCACCCAUGUAUGAC [-23.4, -22.9 kcal, A 36%] (Eterna round: R97, puzzle: Exclusion 4) |  | 192 nM | 43.1 nM |  |
| GUCGUGUUAGGAUAUGGCAACGGCUAGUAAACUAGUUGUUGUUAGAAGGAACAUGAGGAUCACCCAUGUAUGAC [-24.6, -24.1 kcal, A 30%] (Eterna round: R97, puzzle: Exclusion 4) |  | 98.1 nM | 34.4 nM |  |
| GUCUAGAGAGGAUAUAUUUACAGUGUACGUCGGAUGAUUGCACUUGAGGAUCACCCAAGUAGAAGGCUCGAGGG [EX2 #32] (Eterna round: R97, puzzle: Exclusion 2) |  | 457 nM | 303 nM |  |
| GUCUGAGCAGGAUAUACAUGAGGAUCACCCAUGUUGGUUCAGCGACGAUAGUCGCAAUGUAGAAGGGCUCAGAC [E3/9-D1] (Eterna round: R97, puzzle: Exclusion 3) |  | 73.5 nM | 258 nM |  |
| GUCUUCAUGACAUGAGGAUCACCCAUGUGUUAUAUGUUAACUAAGGAUAUAUUUUUAAUGUUGAGAUAGAAGGUAGUUUCGGUC [JR_ExcNG3_Sub091] (Eterna round: R96, puzzle: Exclusion NG 3) |  | 120 nM | 131 nM | apparent KD of MS2 coat protein [2]: 95.8 nM |
| GUCUUCAUGACAUGAGGAUCACCCAUGUGUUAUAUUUUUACUAAGGAUAUAUUUUUAAUGUUGAGAUAGAAGGUAGUUUCGGUC [JR_ExcNG3_Sub092] (Eterna round: R96, puzzle: Exclusion NG 3) |  |  |  | apparent KD of MS2 coat protein [2]: 79.1 nM |
| GUCUUGAUAGGAUAUACAUGAGGAUCACCCAUGUCCCACCCGUUACCUCUGACCCUAUGUAGAAGGAUCGUUUG [Exy#17] (Eterna round: R97, puzzle: Exclusion 3) |  | 34.3 nM | 48.3 nM |  |
| GUGAAACAUGAGGAUCACCCAUGUGAGGAUAUGAUUAAGUAAUGAUGAAAGUAUAUAUUCAGAAGGCACAAUGG [Mat - Mod of JL D73] (puzzle: Exclusion 1) | 83.3 nM |  |  | apparent KD of MS2 coat protein [3]: 132 nM; apparent KD of MS2 coat protein [4]: 152 nM |
| GUGAAACAUGAGGAUCACCCAUGUGAGGAUAUGUUUUAGUACUGCUGACAGUACAUCUAUAGAAGGCACAAUGG [JL-ex1-02] (puzzle: Exclusion 1) | 33.7 nM |  |  |  |
| GUGAACGGAGGAUAUAUAUGGGCAGCAUACGCUGCAGCUUCACAUGAGGAUCACCCAUGUAGAAGGCUGUACAC [Mat - Exclusion 2 - Mod of Hyphema - D101] (puzzle: Exclusion 2) | 8.26 nM |  |  |  |
| GUGAAGUGAGGAUAUAUGAGAGAGGCUGAACCGGACGAGAAGUAGAAGGCACAUGAGGAUCACCCAUGUAAGGG [JR_Exclu4_Sub024] (puzzle: Exclusion 4) | 255 nM |  |  | apparent KD of MS2 coat protein [3]: 293 nM; apparent KD of MS2 coat protein [4]: 372 nM |
| GUGACUGAUGUCAGGAUAUCCGGUGCUAAAGUACAGGAGAAGGGACAUGAGGAUCACCCAUGUAACUUAGCCAG [BmEX4 B.7] (Eterna round: R97, puzzle: Brourd's mod of Exclusion 4) |  | 23.2 nM | 15.4 nM |  |
| GUGAGAUAGUUAGUGGACGACAUGAGGAUCACCCAUGUGAGGGAAAUGUUGAGGAGAAAGCUUUUUGCUCGUCUUUA [JR_SV3TOV1_Sub036] (puzzle: Sensor v3, turn-off variant 1) | 87.4 nM |  |  | apparent KD of MS2 coat protein [3]: 90.8 nM; apparent KD of MS2 coat protein [4]: 119 nM |
| GUGAGCAGACGGAGAUCCUACAUGAGGAUCACCCAUGUCUCACUAGCUUUUUGCUCGUCUUAUCCUCCUCUGUUCUC [Elimod 25 - Jieux - Sensor, turn-off variant 1] (Eterna round: R97, puzzle: Sensor, turn-off variant 1) |  | 176 nM | 201 nM |  |
| GUGAGGCCAGUGAGGAUAUGUGUACAACUACGUGCAUAGAAGGCACAUGAGGAUCACCCAUGUGAAUUCCCAGG [Eternabot (L1) Solution 65] (Eterna round: R97, puzzle: Brourd's mod of Exclusion 4) |  | 14.7 nM | 14.4 nM |  |

| Sequence | apparent KD of MS2 coat protein [1] | apparent KD of MS2 coat protein (input ligand: FMN 200 uM) | apparent KD of MS2 coat protein (input ligand: none) | other results |
| --- | --- | --- | --- | --- |
| GUGAGGUAAGGAUAUAGUAGUGAAGGUAAAAUAUGAGAAUGCUAGAAGGUACAUGAGGAUCACCCAUGUUAGGG [JR_Exclu4_Sub088] (puzzle: Exclusion 4) | 146 nM |  |  |  |
| GUGAUACAUGAGGAUCACCCAUGUCAGGAUAUGAUACUAUGUACUUCGGUACAUAGUAUCAGAAGGGACAGUGA [Ex1-3: 4] (puzzle: Exclusion 1) | 125 nM |  |  |  |
| GUGCAACAUGAGGAUCACCCAUGUCAGGAUAUGCGAAUUUCAUCAAAAGAUGAAAUUUGCAGAAGGGACUAUAC [Omei Ex1 A22] (Eterna round: R97, puzzle: Exclusion 1) |  | 67.4 nM | 38.5 nM |  |
| GUGCAACAUGAGGAUCACCCAUGUGAGGAUAUGCGAAUUUCAUCAAAAGAUGAAAUUUGCAGAAGGCACAGCAC [Omei Ex1 A13] (Eterna round: R97, puzzle: Exclusion 1) |  | 20.5 nM | 15.9 nM |  |
| GUGCCGCGAGGAUAUACAGACGGGUCCAUUACGUGUCUCGGACUUGAGGAUCACCCAAGUAGAAGGCGUCUCGG [salish99_ex2_r4_627] (Eterna round: R97, puzzle: Exclusion 2) |  | 26 nM | 27.9 nM |  |
| GUGCGGUGAGGAUAUACGUAGGUGAAAAUCUGUGUGUUCCUACAUGAGGAUCACCCAUGUAGAAGGCAUGGCAC [LRO-Excl2-13] (puzzle: Exclusion 2) | 90.5 nM |  |  |  |
| GUGGAGGUAGGAUAUCCGCUUCCGGACAUGAGGAUCACCCAUGUUGUUCGGAUUGGACAGGGAGAAGGGCCCACAA [Eternabot (Original) Solution 37] (Eterna round: R97, puzzle: Exclusion 5) |  | 44.9 nM | 39.3 nM |  |
| GUGGAGUAAGGAUAUACAUGAGGAUCACCCAUGUGAGGGUAUGAGAAGGGAAUGAGAGGUAGAAGGUACGAGGA [JR_Exclu3_Sub069] (puzzle: Exclusion 3) | 106 nM |  |  | apparent KD of MS2 coat protein [3]: 108 nM; apparent KD of MS2 coat protein [4]: 186 nM |
| GUGGCACAUGAGGAUCACCCAUGUCAGGAUAUCGUGUGUUUUUUUUCGGCCGCGCGCGCGAGAAGGGACGUCUU (puzzle: Exclusion 1) | 97.8 nM |  |  |  |
| GUGGGUCCUCACGGUGCUACAUGAGGAUCACCCAUGUGGAUUGAGGAUAUCGUAACCCUACGGGACGAGAAGGCAGUUUACUGU [Ex NG3 #100] (Eterna round: R96, puzzle: Exclusion NG 3) |  | 48.5 nM | 23.1 nM | apparent KD of MS2 coat protein [2]: 14.7 nM |
| GUGGGUUACAUGAGGAUCACCCAUGUAGAGUGGGAAGAGAGAUAGGAUAUGAUGUGAGAAUUAUAUUAGAAGGAUCGAGACUCG [AK ExNG3-2.5] (Eterna round: R96, puzzle: Exclusion NG 3) |  | 246 nM | 285 nM | apparent KD of MS2 coat protein [2]: 174 nM |
| GUGGUACAUGAGGAUCACCCAUGUUAGGAUAUCGCGUGAGGUUUUACUUCCGCACACACGAGAAGGGACGUCUU (puzzle: Exclusion 1) | 27.7 nM |  |  |  |
| GUGUACAGAGGAUAUACAAGAGGAGUUACGAAAGUAACUUCACAUGAGGAUCACCCAUGUAGAAGGCUGUACAC [Dot plot directed v7] (puzzle: Exclusion 2) | 21.2 nM |  |  |  |
| GUGUACGGAGGAUAUAUGUGGGCAGGCUGACCUGCAGCUUCACAUGAGGAUCACCCAUGUAGAAGGCUGUACAC [Mat - Exclusion 2 - Mod of Hyphema - D99] (puzzle: Exclusion 2) | 20.7 nM |  |  |  |
| GUGUACGGAGGAUAUAUGUGGGCAGGCUGACCUGCAGCUUCACAUGAGGAUCACCCAUGUAGAAGGCUGUGCAC [JL-ex2-2.08 Brourd mod] (puzzle: Exclusion 2) | 16.9 nM |  |  |  |
| GUGUACGGAGGAUAUAUGUGGUGAGCAUACGCUCAAGCUUCACAUGAGGAUCACCCAUGUAGAAGGCUGUGCAC [JL-ex2-2.13 Brourd mod] (puzzle: Exclusion 2) | 118 nM |  |  |  |
| GUGUACGGAGGAUAUGUAUGGGCAGGCUGACCUGCAGCUUCACAUGAGGAUCACCCAUGUAGAAGGCUGUGCAC [JL-ex2-2.09 Brourd mod] (puzzle: Exclusion 2) | 10.7 nM |  |  |  |
